In publication doi:10.1101/2023.06.02.543457 (bioRxiv, 2023):

Target: the molecule itself
Assay: cryo-EM structure

B1: Rsph16 (natural protein, mouse, UniProt Q80Y75 1-316, looked up)
chain: MGLDYYAVLQVTRNSEDAQIKKAYRKLALKNHPLKSSEPGAPEIFKQIAEAYDVLSDPVKRGIYDKFGEEGLKGGIPLEFGSQTPWTTGYVFHGNPDKVFHEFFGGDNPFSEFFDAEGNDIDLNFGGLWGRGVQKQDPPIERDLYLSLEDLFFGCTKKIKISRRVLNEDRYSSTIKDKILTIDVRPGWRQGTRITFEKEGDQGPNIIPADIIFIVKEKLHPRFRREHDNLFFVYPIPLGKALTCCTVEVKTLDDRLLNIPINDIVHPKYFKIVPGEGMPLPENPSKKGDLFIFFDIQFPTRLTPQKKQMLRQALLT
  stoichiometry N: 2
